Source: patent US20140087995A1 (published 2014)
Numbered stars: 1 amine (or outer) side, 2 acyl side, 3 side chain; on linkers, the order of the positions; unused ones are H or OH. Bridge positions count the residues as written; N and C are the ends. Side chains are listed from the residue outwards. Ends that are not written are not given here. * marks the point of attachment. C20 diacid = O=C(O)CCCCCCCCCCCCCCCCCCC(=O)*; γGlu = O=C(O)[C@H](CCC(=O)[*:2])N[*:1]

B1: N^ε1-[(4S)-4-carboxy-4-(19-carboxynonadecanoylamino)butanoyl]-[Arg17,Pro21,Pro27,Glu35]-h-amylin (peptide)
peptide: K([γGlu-C20 diacid])CNTATCATQRLANFLRHSSPNFGAIPSSTNVGSETY-NH2
modifications: disulfide 2-7; N-terminus assumed
SMILES: CC[C@H](C)[C@H](NC(=O)[C@H](C)NC(=O)CNC(=O)[C@H](Cc1ccccc1)NC(=O)[C@H](CC(N)=O)NC(=O)[C@@H]1CCCN1C(=O)[C@H](CO)NC(=O)[C@H](CO)NC(=O)[C@H](Cc1c[nH]cn1)NC(=O)[C@H](CCCNC(=N)N)NC(=O)[C@H](CC(C)C)NC(=O)[C@H](Cc1ccccc1)NC(=O)[C@H](CC(N)=O)NC(=O)[C@H](C)NC(=O)[C@H](CC(C)C)NC(=O)[C@H](CCCNC(=N)N)NC(=O)[C@H](CCC(N)=O)NC(=O)[C@@H](NC(=O)[C@H](C)NC(=O)[C@@H]1CSSC[C@H](NC(=O)[C@@H](N)CCCCNC(=O)CC[C@H](NC(=O)CCCCCCCCCCCCCCCCCCC(=O)O)C(=O)O)C(=O)N[C@@H](CC(N)=O)C(=O)N[C@@H]([C@@H](C)O)C(=O)N[C@@H](C)C(=O)N[C@@H]([C@@H](C)O)C(=O)N1)[C@@H](C)O)C(=O)N1CCC[C@H]1C(=O)N[C@@H](CO)C(=O)N[C@@H](CO)C(=O)N[C@H](C(=O)N[C@@H](CC(N)=O)C(=O)N[C@H](C(=O)NCC(=O)N[C@@H](CO)C(=O)N[C@@H](CCC(=O)O)C(=O)N[C@H](C(=O)N[C@@H](Cc1ccc(O)cc1)C(N)=O)[C@@H](C)O)C(C)C)[C@@H](C)O
notes: also called compound 27
B2: N^ε1-[(4S)-4-carboxy-4-(19-carboxynonadecanoylamino)butanoyl]-[Arg17,Pro21,Pro27,Lys35]-h-amylin (peptide)
peptide: K([γGlu-C20 diacid])CNTATCATQRLANFLRHSSPNFGAIPSSTNVGSKTY-NH2
modifications: disulfide 2-7; N-terminus assumed
SMILES: CC[C@H](C)[C@H](NC(=O)[C@H](C)NC(=O)CNC(=O)[C@H](Cc1ccccc1)NC(=O)[C@H](CC(N)=O)NC(=O)[C@@H]1CCCN1C(=O)[C@H](CO)NC(=O)[C@H](CO)NC(=O)[C@H](Cc1c[nH]cn1)NC(=O)[C@H](CCCNC(=N)N)NC(=O)[C@H](CC(C)C)NC(=O)[C@H](Cc1ccccc1)NC(=O)[C@H](CC(N)=O)NC(=O)[C@H](C)NC(=O)[C@H](CC(C)C)NC(=O)[C@H](CCCNC(=N)N)NC(=O)[C@H](CCC(N)=O)NC(=O)[C@@H](NC(=O)[C@H](C)NC(=O)[C@@H]1CSSC[C@H](NC(=O)[C@@H](N)CCCCNC(=O)CC[C@H](NC(=O)CCCCCCCCCCCCCCCCCCC(=O)O)C(=O)O)C(=O)N[C@@H](CC(N)=O)C(=O)N[C@@H]([C@@H](C)O)C(=O)N[C@@H](C)C(=O)N[C@@H]([C@@H](C)O)C(=O)N1)[C@@H](C)O)C(=O)N1CCC[C@H]1C(=O)N[C@@H](CO)C(=O)N[C@@H](CO)C(=O)N[C@H](C(=O)N[C@@H](CC(N)=O)C(=O)N[C@H](C(=O)NCC(=O)N[C@@H](CO)C(=O)N[C@@H](CCCCN)C(=O)N[C@H](C(=O)N[C@@H](Cc1ccc(O)cc1)C(N)=O)[C@@H](C)O)C(C)C)[C@@H](C)O
notes: also called compound 35
B3: N^ε1-[(4S)-4-carboxy-4-[[(4S)-4-carboxy-4-(19-carboxynonadecanoylamino)butanoyl]amino]butanoyl]-[Asp14,Arg17,Pro21,Pro27,Asp35]-h-amylin (peptide)
peptide: K([γGlu-γGlu-C20 diacid])CNTATCATQRLADFLRHSSPNFGAIPSSTNVGSDTY-NH2
modifications: disulfide 2-7; N-terminus assumed
SMILES: CC[C@H](C)[C@H](NC(=O)[C@H](C)NC(=O)CNC(=O)[C@H](Cc1ccccc1)NC(=O)[C@H](CC(N)=O)NC(=O)[C@@H]1CCCN1C(=O)[C@H](CO)NC(=O)[C@H](CO)NC(=O)[C@H](Cc1c[nH]cn1)NC(=O)[C@H](CCCNC(=N)N)NC(=O)[C@H](CC(C)C)NC(=O)[C@H](Cc1ccccc1)NC(=O)[C@H](CC(=O)O)NC(=O)[C@H](C)NC(=O)[C@H](CC(C)C)NC(=O)[C@H](CCCNC(=N)N)NC(=O)[C@H](CCC(N)=O)NC(=O)[C@@H](NC(=O)[C@H](C)NC(=O)[C@@H]1CSSC[C@H](NC(=O)[C@@H](N)CCCCNC(=O)CC[C@H](NC(=O)CC[C@H](NC(=O)CCCCCCCCCCCCCCCCCCC(=O)O)C(=O)O)C(=O)O)C(=O)N[C@@H](CC(N)=O)C(=O)N[C@@H]([C@@H](C)O)C(=O)N[C@@H](C)C(=O)N[C@@H]([C@@H](C)O)C(=O)N1)[C@@H](C)O)C(=O)N1CCC[C@H]1C(=O)N[C@@H](CO)C(=O)N[C@@H](CO)C(=O)N[C@H](C(=O)N[C@@H](CC(N)=O)C(=O)N[C@H](C(=O)NCC(=O)N[C@@H](CO)C(=O)N[C@@H](CC(=O)O)C(=O)N[C@H](C(=O)N[C@@H](Cc1ccc(O)cc1)C(N)=O)[C@@H](C)O)C(C)C)[C@@H](C)O
notes: also called compound 2
B4: N^ε1-[(4S)-4-carboxy-4-[[(4S)-4-carboxy-4-(19-carboxynonadecanoylamino)butanoyl]amino]butanoyl]-[Glu14,Arg17,Pro21,Pro27,Arg34,Glu35]-h-amylin (peptide)
peptide: K([γGlu-γGlu-C20 diacid])CNTATCATQRLAEFLRHSSPNFGAIPSSTNVGRETY-NH2
modifications: disulfide 2-7; N-terminus assumed
SMILES: CC[C@H](C)[C@H](NC(=O)[C@H](C)NC(=O)CNC(=O)[C@H](Cc1ccccc1)NC(=O)[C@H](CC(N)=O)NC(=O)[C@@H]1CCCN1C(=O)[C@H](CO)NC(=O)[C@H](CO)NC(=O)[C@H](Cc1c[nH]cn1)NC(=O)[C@H](CCCNC(=N)N)NC(=O)[C@H](CC(C)C)NC(=O)[C@H](Cc1ccccc1)NC(=O)[C@H](CCC(=O)O)NC(=O)[C@H](C)NC(=O)[C@H](CC(C)C)NC(=O)[C@H](CCCNC(=N)N)NC(=O)[C@H](CCC(N)=O)NC(=O)[C@@H](NC(=O)[C@H](C)NC(=O)[C@@H]1CSSC[C@H](NC(=O)[C@@H](N)CCCCNC(=O)CC[C@H](NC(=O)CC[C@H](NC(=O)CCCCCCCCCCCCCCCCCCC(=O)O)C(=O)O)C(=O)O)C(=O)N[C@@H](CC(N)=O)C(=O)N[C@@H]([C@@H](C)O)C(=O)N[C@@H](C)C(=O)N[C@@H]([C@@H](C)O)C(=O)N1)[C@@H](C)O)C(=O)N1CCC[C@H]1C(=O)N[C@@H](CO)C(=O)N[C@@H](CO)C(=O)N[C@H](C(=O)N[C@@H](CC(N)=O)C(=O)N[C@H](C(=O)NCC(=O)N[C@@H](CCCNC(=N)N)C(=O)N[C@@H](CCC(=O)O)C(=O)N[C@H](C(=O)N[C@@H](Cc1ccc(O)cc1)C(N)=O)[C@@H](C)O)C(C)C)[C@@H](C)O
B5: N^ε1-[(4S)-4-carboxy-4-[[(4S)-4-carboxy-4-(19-carboxynonadecanoylamino)butanoyl]amino]butanoyl]-[Glu14,Arg17,Pro21,Pro27,His34,Glu35]-h-amylin (peptide)
peptide: K([γGlu-γGlu-C20 diacid])CNTATCATQRLAEFLRHSSPNFGAIPSSTNVGHETY-NH2
modifications: disulfide 2-7; N-terminus assumed
SMILES: CC[C@H](C)[C@H](NC(=O)[C@H](C)NC(=O)CNC(=O)[C@H](Cc1ccccc1)NC(=O)[C@H](CC(N)=O)NC(=O)[C@@H]1CCCN1C(=O)[C@H](CO)NC(=O)[C@H](CO)NC(=O)[C@H](Cc1c[nH]cn1)NC(=O)[C@H](CCCNC(=N)N)NC(=O)[C@H](CC(C)C)NC(=O)[C@H](Cc1ccccc1)NC(=O)[C@H](CCC(=O)O)NC(=O)[C@H](C)NC(=O)[C@H](CC(C)C)NC(=O)[C@H](CCCNC(=N)N)NC(=O)[C@H](CCC(N)=O)NC(=O)[C@@H](NC(=O)[C@H](C)NC(=O)[C@@H]1CSSC[C@H](NC(=O)[C@@H](N)CCCCNC(=O)CC[C@H](NC(=O)CC[C@H](NC(=O)CCCCCCCCCCCCCCCCCCC(=O)O)C(=O)O)C(=O)O)C(=O)N[C@@H](CC(N)=O)C(=O)N[C@@H]([C@@H](C)O)C(=O)N[C@@H](C)C(=O)N[C@@H]([C@@H](C)O)C(=O)N1)[C@@H](C)O)C(=O)N1CCC[C@H]1C(=O)N[C@@H](CO)C(=O)N[C@@H](CO)C(=O)N[C@H](C(=O)N[C@@H](CC(N)=O)C(=O)N[C@H](C(=O)NCC(=O)N[C@@H](Cc1c[nH]cn1)C(=O)N[C@@H](CCC(=O)O)C(=O)N[C@H](C(=O)N[C@@H](Cc1ccc(O)cc1)C(N)=O)[C@@H](C)O)C(C)C)[C@@H](C)O

Target: T1, human amylin receptor (human, UniProt P30988 25-474; O60896 24-148, limits assumed)
T1 construct: whole, on cells; Used as cell membranes prepared from the Amylin 3(a)/CRE-luc BHK cells (Assay V); also called hAmylin-R; hAmylinR
T1 sequence (looked up) 1: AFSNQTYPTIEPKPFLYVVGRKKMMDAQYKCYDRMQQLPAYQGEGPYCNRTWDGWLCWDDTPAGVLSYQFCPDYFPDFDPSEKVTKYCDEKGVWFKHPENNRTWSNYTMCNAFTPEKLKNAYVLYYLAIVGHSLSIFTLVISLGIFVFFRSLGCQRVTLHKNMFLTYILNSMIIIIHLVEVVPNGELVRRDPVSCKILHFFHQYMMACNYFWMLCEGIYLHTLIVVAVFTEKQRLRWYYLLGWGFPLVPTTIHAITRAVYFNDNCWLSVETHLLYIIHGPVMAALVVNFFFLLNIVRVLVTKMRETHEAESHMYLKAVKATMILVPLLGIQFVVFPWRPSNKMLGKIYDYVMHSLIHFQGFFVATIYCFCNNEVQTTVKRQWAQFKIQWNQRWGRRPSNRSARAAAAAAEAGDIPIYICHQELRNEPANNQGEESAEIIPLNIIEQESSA
T1 sequence (looked up) 2: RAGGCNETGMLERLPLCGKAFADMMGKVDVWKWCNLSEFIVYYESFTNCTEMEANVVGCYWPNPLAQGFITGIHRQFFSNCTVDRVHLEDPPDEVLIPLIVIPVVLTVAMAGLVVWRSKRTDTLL
Assay: SPA competition vs 125I-rat amylin, membranes of amylin 3(a) receptor BHK cells (Assay V)
Procedure: The binding assay was performed using scintillation proximity assay (SPA) beads (RPNQ0001) from PerkinElmer and cell membranes from the Amylin 3(a)/CRE-luc cells (as described in Assay (II)) were used. Membranes were prepared in the following way; the cells were rinsed with PBS and incubated with Versene for approximately 5 min before harvesting. The cells were flushed with PBS and the cell-suspension was centrifuged for 5 min at 1000 rpm. Cells were homogenized (ultrathurrax) in a buffer containing 20 mM Na-HEPES and 10 mM EDTA (pH 7.4) and centrifuged at 20.000 rpm for 15 min. The resulting pellet was resuspended, homogenized and centrifuged (20.000 rpm, 15 min) in a buffer containing 20 mM Na-HEPES and 0.1 mM EDTA (pH 7.4, buffer 2). The resulting pellet was resuspended in buffer 2 and protein concentration was measured (BCA protein Assay, Pierce). The homogenate was kept cold during the whole procedure. The membranes were kept at −80° C. until use. The assay was performed in a 384 well Optiplate (PerkinElmer) in a total volume of 40 ul. Membranes were mixed with SPA beads. Final concentration of membranes 35 ng/μL final and SPA beads was 0.05 mg/well. Test-compounds were dissolved in DMSO and further diluted in assay buffer (50 mM Hepes, pH 7.4, 1 mM CaCl2, 5 mM MgCl₂, 0.1% OA and 0.02% Tween20). […] The final mixture was incubated with shaking at 400 rpm for 120 min at 25° C. prior to centrifugation (1500 rpm, 10 min). Samples were analyzed on TopCounter™ (Packard). The IC₅₀ was calculated using (one site binding competition analysis) GraphPad Prism5 as a measure of receptor affinity.

Binder | IC50 [pM]
B1 | 837
B2 | 970
B3 | 411
B4 | 957
B5 | 525
